Assay results reported in paper PMC12810918.

Key:
[1] = system: N=C(N)NCCC[C@H](N)C(=O)O; assay: purified protein; conditions: 40 mM Hepes pH 7.0, 0-20 mM arginine
[2] = substrate: N=C(N)NCCC[C@H](N)C(=O)O; assay: colorimetric determination of citrulline formation; assay type: biochemical, Giardia duodenalis; conditions: 40 mM Hepes pH 7.0, 0-20 mM arginine
Source text: colorimetric determination of citrulline formation on ADIB (recombinant ADI, assemblage B, isolate GS) | recombinantly expressed ADIAI, ADIAII and ADIB in bacteria and determined the Km values

Molecule | Km [1] [µM] | Km [2] [µM] | kcat [2] [s⁻¹]
ADIE (recombinant ADI, assemblage E, isolate P15) (Giardia lamblia P15) | 340 ± 30 | – | –
ADIB (recombinant ADI, assemblage B, isolate GS) (Giardia duodenalis ATCC 50581) (protein) MTDFTKDKEKLAQATQGGETERAEIVVVHLPQGTSFLTSLNPEGNLLEESMCPDELKRDHEGFQAILKEKGCRVYMPYDVLSEASPAEREVLMDQAMASLKYEFHPSGARITPKMKYCVSDEYKRKVLSALSNRNLVDVILSEPVIHLIPGVRNTALVTKSVEIHDSNNMVFMRDQQITTRRGVVMGQFQAPQRRREQVFALIFWKRLGVRVVGDCREGGPHCMLEGGDFIPASPGLTMMGVGLRSTYVGARYLMSKDLLGTRRFAVVKDCFDQHQDRMHLDCTCSIIHDKLVVLDEYICSGMGLRYVDEWIDIGAEAAKKAKSSAVICGTYALVKANVEFQQWLDENGYTIIRIPHEYQLAYGCNNLNLGNNCVLSVHQPTIDFIKASPAYISYCKSHNLSNGLDLVYVPFRGITRMYGSLHCASQVIYRTPATPATVKACEQEGDGLAAIYEKNGEPVDAAGKNFDCVLYIPSTVDDLVDSLGISLGDDVAPSREIIADVHKLYQKLISEGRVPYITWRMPSMPVVSLKGAARAGSLKAILDKIPQLPSFTPKVVDGAPAAYTRYLGLEQADICIDIS | – | 360 ± 20 | 1.99 ± 0.16
